Tests used:
[1] = molecular target: the molecule itself; experiment: SEC; size-exclusion chromatography of the purified protein; conditions not given
[2] = substrate: O=[N+]([O-])c1ccc(O[C@@H]2O[C@H](CO)[C@@H](O)[C@H](O)[C@H]2O)cc1; experiment: purified protein; settings: 50 mM MES pH 5.0, 30°C, 30 min, 0-10 mM substrate

B1: CIB13, GH1 β-glucosidase from Cuniculiplasma divulgatum S5 (enzyme)
chain: MLPKGFRFGFSLAGFQSEMGLSGKDENSDWYQWCHDEYNIKNGVVSGDFPENGAAYWDLFRKDHETAVNIGMNSTRIGIEWSRIFPTSTEGVKVRIDRDGDNITGITIEKSDLESLKKICNMDAVKKYREIFMDLKDRNFYMILNLFHWSMPLWINDPRKREISKGNNLGNFFSEKSVIEFAKFAAFAAYSFDDLVDVYSTMNEPNVVFSGGNNNSEKKYYSKMKFFIEAHARAYDCIRTISRKRIGVIYANEHIESLENSDPELVEEVTWRNRYSFIDSIKSGKTFSTKNMEENSRWPEKNVFRKDLENRLDWIGVNYYSRYVVRRIESGFEAIDGYGFLCSGYEKSKDGRVVSEMGWEIYPQGLYDVLMGYQERYSLPMMVTENGIADDMDRYRPGFLISHMKMIERAIKDGAGVEGYLHWSLTDNFEWSSGFSKKFGLLRVDYRTKKRSIRPSALVFREISKKSGVPEELEWLGERFY
notes: CIB13, GH1 β-glucosidase of Cuniculiplasma divulgatum S5 (JCM 30642), GenBank SIM79973.1, CSP5_1651; predicted monomeric mass 56.1 kDa; Cloned into p15TvL with an N-terminal 6His-tag; also called CSP5_1651; source: E. coli BL21(DE3) Lobstr, purified (Ni-NTA)
stoichiometry N [1]: 2 | Km [2]: 900 ± 100 µM | Vmax [2]: 0.93 µmol/min/mg | kcat [2]: 0.87 s⁻¹

B2: CIB12, GH1 β-glucosidase from Cuniculiplasma divulgatum S5 (enzyme)
chain: MFPKNFKFGFSEAGFQFEMGVSDIDTNTDWYKWSHDSENIKNHIVSGDRPEEGVGYWDLYPKDHDLAEYIGMNAARIGIEWSRIFPVSTERVTVEVIEENGDILEIKITEKTIKELDLLSDKNAMQHYTNIFNDIKKRGWFLVINLFHWSLPLWINDPSNRNSEKDNALGNCMNRSSVIEFVKYAAYISYYFGSIADRFATMNEPNEVFKTCSEDKRVESYHIRMKWFVEAHARSYDAMKQFTNRQIGVIYANGDVQSFENKDPKLKEEVEYEQRYSFFDALIHGDVHWYVGACRKTNHVHGKSIRPDLSNRIDWIGVNYYSRNVVKRKEDGYENVRGLGYDTGWVSYEKSLDGRSVSETGWEIYPEGIYNIVMSYHKRYELPMMITENGMADDNDRFRPRYLVSHLKNLERAINDGAKVDGYLHWALTDNFEWGSGFSKKFGLIKVDYKTKKRYLRPSALIMKEITKHNGIPEELEWLGEDKF
notes: CIB12, GH1 β-glucosidase of Cuniculiplasma divulgatum S5 (JCM 30642), GenBank SIM59545.1, locus tag CSP5_0942; predicted monomeric mass 56.8 kDa; Cloned into p15TvL with an N-terminal 6His-tag; also called CSP5_0942; source: E. coli BL21(DE3) Lobstr, purified (Ni-NTA)
stoichiometry N [1]: 2 | Km [2]: 500 ± 100 µM | Vmax [2]: 0.61 µmol/min/mg | kcat [2]: 0.57 s⁻¹

— article PMC11376072, “Moderately thermostable GH1 β-glucosidases from hyperacidophilic archaeon Cuniculiplasma divulgatum S5” (FEMS Microbiology Ecology, 2024)
